Source: article PMC10304631 (Pharmaceutics, 2023)

How the values were obtained:
[1] = predicted log P; ref Drugbank.com and pubchem.ncbi.nlm.nih.gov (accessed on 3 January 2023); cited from earlier work
Caco-2 cells [2] = experiment: PEN-mediated uptake of TAMRA-insulin by confocal microscopy (CLSM); format: cell-based, human; settings: undifferentiated Caco-2 cells; 5 µM TAMRA-insulin alone, pH 7.4, 1 h
Caco-2 cells [3] = experiment: PEN-mediated uptake of TAMRA-insulin by flow cytometry; format: cell-based, human; settings: 5 µM TAMRA-insulin alone or with 20 µM PEN, 1 h, 37 °C, mean ± SD, N = 2, n = 3
Method: The controls were incubated with a buffer without CPP or insulin. The cells were kept on a shaking table (37 °C, 50 rpm) for 1 h. Hereafter, the test solutions were removed, and the cells were washed twice with cold phosphate-buffered saline (4 °C) and trypsinized for 10–15 min. Trypsinization was terminated by the addition of excess cold hHBSS (4 °C) containing 10% (v/v) FBS (hHBSS/FBS). The cells were then collected and centrifuged at 4000 rpm (1076× g, 4 °C). The supernatant was removed, and the cells were washed once with hHBSS/FBS and centrifuged again at the same conditions before suspension in hHBSS/FBS containing 0.3% (v/v) DRAQ7 as a marker of the plasma membrane’s integrity. To quench extracellular plasma membrane-associated fluorescence, a parallel experiment was performed using the same test solutions, with the addition of trypan blue (TB) at a final concentration of 0.1% (v/v) just prior to analysis.

Molecule	Log P [1]	Uptake of TAMRA-insulin (CLSM) (Caco-2 cells [2])	MFI (A.N.) of TAMRA-insulin (Caco-2 cells [3]; pH 6.5, with Trypan Blue (0.1% v/v)) [A.N.]	MFI (A.N.) of TAMRA-insulin (Caco-2 cells [3]; pH 7.4, with Trypan Blue (0.1% v/v)) [A.N.]	MFI (A.N.) of TAMRA-insulin (Caco-2 cells [3]; pH 7.4, without Trypan Blue) [A.N.]
OC[C@@H](O)[C@@H](O)[C@H](O)[C@H](O)CO [Mannitol]	−3.7				
TAMRA-Insulin: insulin labeled with TAMRA (5/6-carboxy-tetramethyl-rhodamine succinimidyl ester)		uptake was absent	49.6 ± 1.9	40.8 ± 2.6	41.2 ± 2.9
Vancomycin	−4.4				
